Eight molecules from patent publication US20210380702A1 (Regeneron, published 2021) can be followed below.

The target in assay [1] is T1, recombinant human PD-L1 (amino acids 19-239 of NP_054862.1) with a C-terminal myc-myc-hexahistidine tag (human).
T1 construct: also called hPD-L1-MMH; hPD-L1-MMH Monomer
The assay can be described thus: SPR (Biacore), mAb captured, 37C. On the procedure: (§1) Binding association and dissociation rate constants (kₐ and kd, respectively), equilibrium dissociation constants and dissociation half-lives (KD and t_{1/2}, respectively) of antigen binding to purified anti-PD-L1 monoclonal antibodies were determined using a real-time surface plasmon resonance biosensor assay on a Biacore 4000 instrument. The Biacore sensor surface was either derivatized with polyclonal rabbit anti-mouse antibody (GE, #BR-1008-38) or with monoclonal mouse anti-human Fc antibody (GE, #BR-1008-39) to capture approximately 200-300 RUs of anti-PD-L1 monoclonal antibodies, expressed with either a mouse Fc or with human Fc, respectively. […] Different concentrations of PD-L1 reagents were injected over the anti-PD-L1 monoclonal antibody captured surface at a flow rate of 30 μL/min. The binding of the PD-L1 reagents to the captured monoclonal antibodies was monitored for 3 to 4 minutes while the dissociation of antibody bound PD-L1 reagents was monitored for 10 minutes in HBST running buffer (0.01 M HEPES pH 7.4, 0.15 M NaCl, 3 mM EDTA, 0.05% v/v Surfactant tween-20). Experiments were performed at either 25° C. or 37° C. Kinetic association (kₐ) and dissociation (kd) rate constants were determined by processing and fitting the data to a 1:1 binding model using Scrubber 2.0c curve fitting software. Binding dissociation equilibrium constants (KD) and dissociative half-lives (t_{1/2}) were then calculated from the kinetic rate constants as: KD (M)=kd/kₐ and t_{1/2} (min)=[In2/(60*kd)].

In assay [2] the target is T2, Human PD-L1 Dimer (human, UniProt Q9NZQ7 19-239).
T2 construct: also called hPD-L1 dimer; hPD-L1-hFc
In words: SPR (Biacore), mAb captured, 37C. How it is done:
as §1
A general note: SPR reads the build-up and loss of mass on a sensor chip optically.

Assay [3] concerns the target T3, recombinant cynomolgus monkey PD-L1 with a C-terminal myc-myc-hexahistidine tag (cynomolgus monkey (Macaca fascicularis)).
T3 construct: also called MfPD-L1-MMH; MfPD-L1-MMH Monomer
The assay can be described thus: SPR (Biacore), mAb captured, 37C. How it is done:
as §1

Assay [4] addresses T2, Human PD-L1 Dimer. The assay can be described thus: SPR (Biacore), mAb captured, 25C. How it is done:
as §1

The target in assay [5] is T3, recombinant cynomolgus monkey PD-L1 …. The assay can be described thus: SPR (Biacore), mAb captured, 25C. On the procedure:
as §1

The target of assay [6] is T4, recombinant human PD-L1 expressed with a C-terminal myc-myc-hexahistidine tag (hPD-L1-MMH) (human).
T4 construct: Monomeric PD-L1 reagent; also called hPD-L1-MMH Monomer
The assay can be described thus: SPR, captured mAb, 25 C. How it is done:
as §1

T2 sequence (Q9NZQ7 19-239): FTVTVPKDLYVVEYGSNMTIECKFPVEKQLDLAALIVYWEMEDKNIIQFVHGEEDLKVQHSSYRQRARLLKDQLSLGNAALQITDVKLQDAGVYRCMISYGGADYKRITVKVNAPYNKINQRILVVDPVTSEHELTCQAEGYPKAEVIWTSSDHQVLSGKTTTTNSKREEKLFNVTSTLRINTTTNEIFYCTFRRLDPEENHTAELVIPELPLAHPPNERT
T3 sequence (chain, as listed by the source limits assumed): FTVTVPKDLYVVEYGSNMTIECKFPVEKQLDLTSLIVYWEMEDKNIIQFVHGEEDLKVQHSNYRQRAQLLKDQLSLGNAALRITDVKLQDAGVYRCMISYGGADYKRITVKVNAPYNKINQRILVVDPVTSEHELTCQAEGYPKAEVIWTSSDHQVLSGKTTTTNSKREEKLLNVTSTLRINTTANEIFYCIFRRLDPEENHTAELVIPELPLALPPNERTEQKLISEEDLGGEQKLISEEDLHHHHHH
T4 sequence (chain, as listed by the source limits assumed): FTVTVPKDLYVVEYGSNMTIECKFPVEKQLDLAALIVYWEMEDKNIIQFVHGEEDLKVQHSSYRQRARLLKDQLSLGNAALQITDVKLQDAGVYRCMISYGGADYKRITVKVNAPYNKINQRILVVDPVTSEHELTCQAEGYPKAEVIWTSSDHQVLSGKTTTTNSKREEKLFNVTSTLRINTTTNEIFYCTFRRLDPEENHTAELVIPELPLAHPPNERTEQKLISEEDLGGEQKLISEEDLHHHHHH

B1: H2aM8310N (antibody, mouse IgG2, V domains shown)
VH: QVQLVQSGAEVKKPGASVQVSCKASGYSFTGYYIHWVRQAPGQGLEWMGWINPNSGTKKYAHKFQGRVTMTRDTSIDTAYMILSSLISDDTAVYYCARDEDWNFGSWFDSWGQGTLVTVSS
VL: DIVMTQTPLSSPVTLGQPASISCRSSQTLVHGDGNTYLSWIQQRPGQPPRLLIYKVSNQFSGVPDRFSGSGAGTDFTLKISRVEAEDVGLYFCMQATHFPITFGQGTRLEIK
notes: also called H2M8310N
On to B1, for which the Kd (in general, the concentration at which binding is half-saturated) in assay [1] was found to be 9.7 nM; in the assay with Human PD-L1 Dimer [2] it was 0.258 nM; in assay [3], 2.27 nM; in the assay with Human PD-L1 Dimer [4], 0.183 nM; in assay [5], 2.97 nM. Besides, the koff (usually a measure of how fast the partners let go of each other) in assay [1] is 0.00128 s⁻¹; with Human PD-L1 Dimer [2], 0.000124 s⁻¹; in assay [3], 0.00107 s⁻¹; in the assay with Human PD-L1 Dimer [4], 5.71e-05 s⁻¹; in assay [5] it was 0.000306 s⁻¹. In addition, the on-rate (kon) (as a rule, the rate constant with which the complex forms) in assay [1] came to 132000 M⁻¹ s⁻¹; with Human PD-L1 Dimer [2] it was 481000 M⁻¹ s⁻¹; in assay [3], 471000 M⁻¹ s⁻¹; with Human PD-L1 Dimer [4], 313000 M⁻¹ s⁻¹; in assay [5], 103000 M⁻¹ s⁻¹. Besides, the t1/2 in assay [1] was determined as 9 min; in the assay with Human PD-L1 Dimer [2], 93 min; in assay [3], 11 min; with Human PD-L1 Dimer [4] it was 202 min; in assay [5], 38 min.

B2: H1H9396P2 (antibody, human IgG1, V domains shown)
VH: QVQLVQSGAEVEKPGASVKVSCKASGYIFTHYGISWVRQAPGQGLEWVGWISPYNGYTDYAQKLQGRVTLTTDTSTTTAYMELRNLRSDDTAMYYCSRGRGPYWSFDLWGRGTLVTVSS
VL: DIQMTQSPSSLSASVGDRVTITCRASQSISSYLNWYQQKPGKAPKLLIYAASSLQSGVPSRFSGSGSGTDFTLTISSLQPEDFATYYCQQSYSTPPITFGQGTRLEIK
For B2, in assay [6], the Kd was 12.7 nM, the koff is 0.00218 s⁻¹, the kon amounted to 172000 M⁻¹ s⁻¹ and the t1/2 was 5.3 min.

B3: H2aM8309N (antibody, mouse IgG2, V domains shown)
VH: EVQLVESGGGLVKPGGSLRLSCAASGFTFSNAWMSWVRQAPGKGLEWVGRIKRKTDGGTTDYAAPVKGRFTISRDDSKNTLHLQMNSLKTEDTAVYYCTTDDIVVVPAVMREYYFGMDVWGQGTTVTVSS
VL: DIQMTQSPSSLSASVGDRVTITCRTSQGIRNDLGWYQQKPGKAPKRLIYAASSLQSGVPSRFSGSGSGTEFTLTISSLQPEDFATYYCLQHNNYPYTFGQGTKLEIK
notes: also called H2M8309N
As to B3, the Kd turned out to be 29.7 nM in assay [1]; 0.0376 nM with Human PD-L1 Dimer [2]; 26.3 nM in assay [3]; 0.0429 nM with Human PD-L1 Dimer [4]; 14.9 nM in assay [5]. Also, the koff was 0.0314 s⁻¹ in assay [1]; 0.000166 s⁻¹ with Human PD-L1 Dimer [2]; 0.0281 s⁻¹ in assay [3]; 0.000144 s⁻¹ with Human PD-L1 Dimer [4]; 0.013 s⁻¹ in assay [5]. Also, the kon in assay [1] was 1.06e+06 M⁻¹ s⁻¹; with Human PD-L1 Dimer [2], 4.41e+06 M⁻¹ s⁻¹; in assay [3] it was 1.07e+06 M⁻¹ s⁻¹; with Human PD-L1 Dimer [4], 3.36e+06 M⁻¹ s⁻¹; in assay [5], 870000 M⁻¹ s⁻¹. Also, the t1/2 was 0.4 min in assay [1]; 70 min with Human PD-L1 Dimer [2]; 0.4 min in assay [3]; 80 min with Human PD-L1 Dimer [4]; 0.9 min in assay [5].

B4: H2aM8314N (antibody, mouse IgG2, V domains shown)
VH: EVQLVESGGGVVRPGGSLRLSCAASGFTFDDYGMTWVRQAPGRGLEWVSGIHWHGKRTGYADSVKGRFTISRDNAKKSLYLQMNSLKGEDTALYHCVRGGMSTGDWFDPWGQGTLVIVSS
VL: DIQMTQSPSSLSASLGDRVTITCRASQSINSYLNWYQQKPGKAPKLLIYVASSLQSGVPSRFSGSGSGTEFTLTISNLQPEDFATYYCQQSYSTPPITFGQGTRLEIK
notes: also called H2M8314N
Take B4: the Kd in assay [1] was 0.14 nM; with Human PD-L1 Dimer [2] it was 0.00591 nM; in assay [3], 0.142 nM; with Human PD-L1 Dimer [4], 0.00426 nM; in assay [5], 0.0724 nM. Moreover, the koff came out at 0.00015 s⁻¹ in assay [1]; 2.3e-05 s⁻¹ in the assay with Human PD-L1 Dimer [2]; 0.000152 s⁻¹ in assay [3]; 1.35e-05 s⁻¹ in the assay with Human PD-L1 Dimer [4]; 7e-05 s⁻¹ in assay [5]. For the same molecule, the kon in assay [1] came to 1.07e+06 M⁻¹ s⁻¹; in the assay with Human PD-L1 Dimer [2], 3.89e+06 M⁻¹ s⁻¹; in assay [3], 1.07e+06 M⁻¹ s⁻¹; with Human PD-L1 Dimer [4], 3.16e+06 M⁻¹ s⁻¹; in assay [5] it was 966000 M⁻¹ s⁻¹. In addition, the t1/2 worked out at 77 min in assay [1]; 503 min with Human PD-L1 Dimer [2]; 76 min in assay [3]; 859 min in the assay with Human PD-L1 Dimer [4]; 165 min in assay [5].

B5: H2aM8317N (antibody, mouse IgG2, V domains shown)
VH: EVQLVESGGGLVQPGGSLRLSCAASGFTVGSNYMNWVRQAPGKGLEWVSVIYSGGSTYYADSVKGRFTISRLTSKNTLYLQMSSLRPEDTAVYYCARGIRGLDVWGQGTTVTVSS
VL: DIQMTQSPSSLSASVGDRVTITCRASQTINIYLNWYQQKPGRAPRLLIYAASSLQSGVPSRFSGSGSGTDFTLTISSLQPEDFATYYCHQSYSTPPITFGQGTRLEIK
notes: also called H2M8317N
In the case of B5, the Kd in assay [1] was 647 nM; with Human PD-L1 Dimer [2], 1.36 nM; in assay [3] it was 179 nM; in the assay with Human PD-L1 Dimer [4], 1.25 nM; in assay [5] it was 226 nM. For the same molecule, the koff in assay [1] was determined as 0.0585 s⁻¹; with Human PD-L1 Dimer [2], 0.000657 s⁻¹; in assay [3], 0.0476 s⁻¹; with Human PD-L1 Dimer [4], 0.00045 s⁻¹; in assay [5], 0.0238 s⁻¹. Besides, the kon came out at 90300 M⁻¹ s⁻¹ in assay [1]; 481000 M⁻¹ s⁻¹ with Human PD-L1 Dimer [2]; 266000 M⁻¹ s⁻¹ in assay [3]; 359000 M⁻¹ s⁻¹ with Human PD-L1 Dimer [4]; 106000 M⁻¹ s⁻¹ in assay [5]. For the same molecule, the t1/2 came out at 0.2 min in assay [1]; 18 min with Human PD-L1 Dimer [2]; 0.2 min in assay [3]; 26 min with Human PD-L1 Dimer [4]; 0.5 min in assay [5].

B6: H2aM8321N (antibody, mouse IgG2, V domains shown)
VH: EERLVESGGDLVQPGGSLRLSCAASGITVGTNYMNWVRQAPGKGLEWVSVISSGGNTHYADSVKGRFIMSRQTSKNTLYLQMNSLETEDTAVYYCARGIRGLDVWGQGTMVTVSS
VL: DIQMTQSPSSLSASVGDRVTITCRASQSMSSYLNWYQQKPGRAPKLLIFAASSLQSGVPSRFSGSGSGTDFTLTISSLQPEDFATYYCQQSYSTPPITFGQGTRLEIK
notes: also called H2M8321N
Take B6: the Kd in assay [1] was 91.6 nM; in the assay with Human PD-L1 Dimer [2] it was 0.285 nM; in assay [3], 51.1 nM; with Human PD-L1 Dimer [4] it was 0.353 nM; in assay [5], 29.9 nM. Also, the koff is 0.00929 s⁻¹ in assay [1]; 0.000269 s⁻¹ with Human PD-L1 Dimer [2]; 0.00816 s⁻¹ in assay [3]; 0.000287 s⁻¹ with Human PD-L1 Dimer [4]; 0.00402 s⁻¹ in assay [5]. Besides, the kon in assay [1] was 101000 M⁻¹ s⁻¹; in the assay with Human PD-L1 Dimer [2], 946000 M⁻¹ s⁻¹; in assay [3], 159000 M⁻¹ s⁻¹; with Human PD-L1 Dimer [4], 813000 M⁻¹ s⁻¹; in assay [5], 134000 M⁻¹ s⁻¹. The t1/2 in assay [1] was determined as 1.2 min; in the assay with Human PD-L1 Dimer [2], 43 min; in assay [3], 1.4 min; with Human PD-L1 Dimer [4], 40 min; in assay [5], 2.9 min.

B7: H2aM8312N (antibody, mouse IgG2, V domains shown)
VH: QVHLVQSGAEVKKPGASVKVSCKASGYTFTGYYIHWVRQAPGHGLEWMGWLNPNTGTTKYIQNFQGRVTMTRDTSSSTAYMELTRLRSDDTAVYYCARDEDWNYGSWFDTWGQGTLVTVSS
VL: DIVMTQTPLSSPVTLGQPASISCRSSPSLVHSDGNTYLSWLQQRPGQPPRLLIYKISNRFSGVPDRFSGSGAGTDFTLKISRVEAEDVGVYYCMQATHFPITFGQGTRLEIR
notes: also called H2M8312N
For the molecule B7, the Kd in assay [1] turned out to be 45.3 nM; in the assay with Human PD-L1 Dimer [2], 0.732 nM; in assay [3], 32.7 nM; in the assay with Human PD-L1 Dimer [4] it was 0.413 nM; in assay [5] it was 8.42 nM. Also, the off-rate constant (koff) stood at 0.00403 s⁻¹ in assay [1]; 0.000261 s⁻¹ with Human PD-L1 Dimer [2]; 0.00332 s⁻¹ in assay [3]; 0.000102 s⁻¹ with Human PD-L1 Dimer [4]; 0.000597 s⁻¹ in assay [5]. Further, the on-rate constant (kon) in assay [1] turned out to be 88900 M⁻¹ s⁻¹; in the assay with Human PD-L1 Dimer [2], 357000 M⁻¹ s⁻¹; in assay [3], 101000 M⁻¹ s⁻¹; with Human PD-L1 Dimer [4], 247000 M⁻¹ s⁻¹; in assay [5] it was 70900 M⁻¹ s⁻¹. The t1/2 in assay [1] was 2.9 min; with Human PD-L1 Dimer [2], 44 min; in assay [3] it was 3.5 min; with Human PD-L1 Dimer [4], 113 min; in assay [5], 19 min.

B8: H2aM8306N (antibody, mouse IgG2, V domains shown)
VH: EVQLVESGGGLVQPGGSLRLSCAASGFTFSRFWMSWVRQAPGKGLEWVANINQDGTEKYYVDSVKGRFTISRDNAKNSLYLQMNSLRAGDTAVYYCANTYYDFWSGHFDYWGQGTLVTVSS
VL: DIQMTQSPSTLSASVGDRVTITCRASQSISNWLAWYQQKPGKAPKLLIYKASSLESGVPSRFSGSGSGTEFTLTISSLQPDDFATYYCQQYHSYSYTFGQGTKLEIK
notes: also called H2M8306N
Take B8: the Kd in assay [1] came out at 172 nM; with Human PD-L1 Dimer [2] it was 0.417 nM; in assay [3] it was 134 nM; in the assay with Human PD-L1 Dimer [4], 0.418 nM; in assay [5], 47.7 nM. In addition, the koff in assay [1] is 0.031 s⁻¹; in the assay with Human PD-L1 Dimer [2], 0.000416 s⁻¹; in assay [3], 0.0368 s⁻¹; with Human PD-L1 Dimer [4] it was 0.000309 s⁻¹; in assay [5] it was 0.00788 s⁻¹. For the same molecule, the kon in assay [1] was determined as 180000 M⁻¹ s⁻¹; in the assay with Human PD-L1 Dimer [2] it was 997000 M⁻¹ s⁻¹; in assay [3] it was 274000 M⁻¹ s⁻¹; with Human PD-L1 Dimer [4], 739000 M⁻¹ s⁻¹; in assay [5], 165000 M⁻¹ s⁻¹. Besides, the t1/2 in assay [1] is 0.4 min; with Human PD-L1 Dimer [2], 28 min; in assay [3], 0.3 min; with Human PD-L1 Dimer [4] it was 37 min; in assay [5], 1.5 min.
